Measurements as given in patent US20180118786A1, “NOVEL lNHIBITORS OF THE ENZYME ACTIVATED FACTOR XII (FXIIA)” (ECOLE POLYTECHNIQUE FEDERALE DE LAUSANNE (EPFL), priority 2015, published 2018).

Tests used:
FXIIa = settings: cited from earlier work
trypsin = trypsin (Homo sapiens, UniProt P07477); test: Specificity FXII618 vs CTI, trypsin; assay type: biochemical; settings: at a concentration as low as 20 nM
[1] = tested on: thrombin generation in platelet poor plasma; test: Thrombin generation assay by CAT, TF-triggered or without trigger; assay type: biochemical, human; settings: 1 pM TF, 100 μg/mL inhibitor
[2] = tested on: intrinsic pathway (contact activation); test: Thrombin generation assay by CAT triggered by ellagic acid; assay type: biochemical, human; settings: ellagic acid trigger, 100 μg/mL
Protocol: (§1) Thrombin generation was performed as previously described with some modifications.30 In brief, 60 μL platelet poor plasma (PPP), 20 μL FXIIa inhibitor/HA buffer (Hepes 20 mM, NaCl 140 mM, pH 7.4, 5 mg/mL BSA), and 20 μL PPP reagent, PPP LOW reagent, MP reagent or Actin FS (1:170 diluted in HA buffer) were mixed in a 96-well microtiter plate (Immulon 2HB; Thermo Fisher Scientific) and incubated for 15 min at 37° C. Thrombin generation was triggered by the addition of 20 μL of substrate/calcium chloride buffer (FLUKA) at 37° C. Samples were tested in triplicate for each condition. Fluorogenic thrombin substrate hydrolysis was measured every 20 s for 120 min on a microplate fluorometer (Fluoroskan Ascent FL; Thermo Fisher Scientific) with a 390/460-nm (excitation/emission) filter set. Data analysis was performed on the Thrombinoscope software (Synapse By). PPP reagent (TF […], PL 4 μM), PPP LOW reagent (TF […], PL 4 μM), MP reagent (PL 4 μM), thrombin calibrator and FLUKA were purchased from Synapse By.

[3] = tested on: thrombin generation in platelet poor plasma; test: Thrombin generation assay by CAT, TF-triggered or without trigger; assay type: biochemical, human; set-up: lag time: unit not given here; settings: 100 μg/mL inhibitor
Protocol: as §1
Venous blood was collected from healthy volunteers by antecubital venipuncture with 19-gauge needles in 3,2% (w/v) citrated Monovette plastic tubes. In order to minimize contact activation, the first collection tube containing EDTA was discarded according to standard procedures. […] Blood was then processed to PPP by an initial centrifugation step at 2,000 g for 5 min followed by a second centrifugation step at 10,000 g for 10 min. Plasma aliquots were stored at −80 until analysis.

[4] = tested on: intrinsic pathway of coagulation; test: aPTT in human plasma (Example 1); assay type: biochemical; settings: citrated platelet poor plasma, 100 μg/mL inhibitor
Protocol: aPTT, PT and FXII coagulant activity (FXII:c) measurements Coagulation times (aPTT, PT) and FXIIa activity were determined in human plasma using an automated blood coagulation analyzer (Sysmex CS-5100, Siemens, Eschborn, Germany) with according to the manufacturer's instructions (Siemens). Extrinsic coagulation was triggered with Innovin® (recombinant human tissue factor, synthetic phospholipids and calcium in stabilized HEPES buffer system; Dade Behring/Simens). Intrinsic coagulation was triggered with Pathromtin* SL (Siemens). Human plasma used in this study was derived from a pool of fresh frozen plasma units provided by the Service Regional Vaudois de Transfusion Sanguine, Switzerland.
Coagulation times (aPTT, PT) and FXIIa activity were determined, at least in duplicate, in human plasma using an automated blood coagulation analyzer (Sysmex CA-7000) with standard reagents according to the manufacturer's instructions (Siemens Healthcare, Eschborn, Germany). Human plasma used in this study was derived from a pool of fresh frozen plasma units provided by the Service Regional Vaudois de Transfusion Sanguine, Switzerland.

[5] = absence of extrinsic- or intrinsic-specific trigger

FXIIa, sequence (P00748 373-615 limits assumed, other chains not shown): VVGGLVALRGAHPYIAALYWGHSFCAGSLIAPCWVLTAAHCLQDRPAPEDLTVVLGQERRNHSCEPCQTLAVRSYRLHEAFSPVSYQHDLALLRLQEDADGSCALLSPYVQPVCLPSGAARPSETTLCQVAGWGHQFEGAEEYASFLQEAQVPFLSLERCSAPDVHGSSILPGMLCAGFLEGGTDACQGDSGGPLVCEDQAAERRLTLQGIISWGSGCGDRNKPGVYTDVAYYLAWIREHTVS

B1: CTI: 13.6 kDa protein isolated from corn seeds inhibiting FXIIa (protein)
chain: SAGTSCVPGWAIPHNPLPSCRWYVTSRTCGIGPRLPWPELKRRCCRELADIPAYCRCTALSILMDGAIPPGPDAQLEGRLEDLPGCPREVQRGFAATLVTEAECNLATISGVAECPWILGGGTMPSK
FXIIa
  Ki: 24 nM
trypsin
  inhibition of trypsin activity: significantly inhibits
[1]
  effect on thrombin generation: no significant effect
[2]
  reduction of ETP: ~90%
  reduction of peak: > 96%
[3]; 0.25 pM TF
  lag time: 8.0±0.2
[3]; [5]
  lag time: 38.7±1.9
  peak: 78.0±6.8
[4]
  aPTT: 65.4 ± 0.5 s
